Molecular target: T1, Trim58 PS domain (purified, for SEC-MALLS) (mouse, UniProt Q5NCC9 1-485)
T1 sequence (looked up): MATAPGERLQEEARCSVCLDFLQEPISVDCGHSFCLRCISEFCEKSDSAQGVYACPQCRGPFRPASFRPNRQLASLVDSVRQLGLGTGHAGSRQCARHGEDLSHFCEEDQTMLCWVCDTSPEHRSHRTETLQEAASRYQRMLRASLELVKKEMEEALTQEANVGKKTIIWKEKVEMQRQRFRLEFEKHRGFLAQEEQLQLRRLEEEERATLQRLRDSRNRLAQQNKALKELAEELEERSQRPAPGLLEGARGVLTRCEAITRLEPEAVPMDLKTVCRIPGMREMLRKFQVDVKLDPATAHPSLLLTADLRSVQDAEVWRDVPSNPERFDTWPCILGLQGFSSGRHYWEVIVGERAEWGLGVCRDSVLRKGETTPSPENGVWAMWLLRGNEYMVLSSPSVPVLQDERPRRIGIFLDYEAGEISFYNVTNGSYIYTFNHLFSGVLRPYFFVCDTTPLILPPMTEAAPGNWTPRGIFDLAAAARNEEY
Assay: SEC-MALS

stoichiometry N: 1
B1: GST-DIC (1–120) (domain or fragment)
chain: MSDKSDLKAELERKKQRLAQIREEKKRKEEERKKKETDQKKEAAVSVQEESDLEKKRREAEALLQSMGLTTDSPIVPPPMSPSSKSVSTPSEAGSQDSGDGAVGSRRGPIKLGMAKITQV

Source: article PMC4203341 (Developmental cell, 2014)
